Binding result and OD data for ten molecules are collected here from patent US20220273810A1 (IMCARE BIOTECH, published 2022).

In assay [1] the target is T1, NS-SPIK (Normal Secreted serine protease inhibitor Kazal) (Homo sapiens (Human), UniProt P00995 24-79).
T1 construct: also called Normal Secreted SPIK
T1 sequence: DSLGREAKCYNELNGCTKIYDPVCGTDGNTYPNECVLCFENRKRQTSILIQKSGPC
Description: ELISA on a plate immobilised with NS-SPIK from pancreatic cells, OD450nm; antibody concentration not given. As for the experimental part: Ten monoclonal antibodies described here were generated from rabbit. Briefly, rabbit were immunized with the recombinant AS-SPIK which contain different subsets of 23 extra amino acids (SEQ ID NO: 81). The blood was tested after three or four time imbursements by ELISA. Briefly, blood from immunized rabbits were reacted with plate coated with recombinant AS-SPIK. After washing, the color was developed by incubation of the plate with an anti-rabbit antibody labeled with HRP (horseradish peroxidase), and the optical density was measured after reaction with substrate TMB. The rabbit which is positive in test (produced antibody) was sacrificed. The monoclonal antibody was then established and further screened with ELISA using the plates immobilized with partially purified AS-SPIK from S2-3 cells, a cell line expresses high amount of AS-SPIK by integrated entire SPIK gene, Lu et. al Tumor-associated protein SPIK TATI suppresses serine protease dependent cell apoptosis, Apoptosis, 2008 13(4), 483-494 and NS—SPIK from pancreatic cells. Finally, 10 monoclonal antibodies which strongly bind AS-SPIK but not NS-SPIK were selected.

The target of assay [2] is AS-SPIK (Abnormal Secreted serine protease inhibitor Kazal) (Homo sapiens (Human)) (UniProt P00995). Description: sandwich ELISA, HCC patient serum (serum AS-SPIK), complex captured on polyclonal anti-SPIK plate, anti-rabbit-HRP/TMB.
Assay [3] has the same target. Description: sandwich ELISA, S2-3 medium, complex captured on polyclonal anti-SPIK plate, anti-rabbit-HRP/TMB.

B1: IM-G6 (antibody, V domains shown)
VH: QSVKESEGGLFKPTDTLTLTCTVSGFSLSSYPISWVRQAPGNGLEWIGDIYASGSILYASWATGRSTITRNTNLNTVTLKMTSLTAADTATYFCARVSYSGGTDIWGPGTLVTVSS
VL: AYDMTQTPASVEVAVGGTVTIKCQASEDIESYLAWYQQKPGQPPKLLIYRASTLPSGVPSRFKGSGSGTEFTLTISDLECADAATYYCQQDYSSSNVDNTFGGGTEVVVKG
notes: Rabbit monoclonal antibody
For the molecule B1, the binding result in assay [1] is listed as “no binding”.

B2: IM-F5 (antibody, V domains shown)
VH: QSVKESEGGLFKPTDTLTLTCTVSGFSLSIYGVSWVRQAPGNGLEWIGIIYASGSADYASWAKSRSTITRNTNLNTVTLKMTSLTAADTATYFCAREDDTYGYTSSIWGPGTLVTVSS
VL: AYDMTQTPASVSAAVGGTVTIKCQASQSISSYLNWYQQKPGQPPKRLIYRASTLASGVSSRFKGSGSGTQFTLTISGVECADAATYYCQQDYSSNNIDNTFGGGTEVVVKG
notes: Rabbit monoclonal antibody
With B2, the binding result in assay [1] is reported as “no binding”.

B3: IM-D3 (antibody, V domains shown)
VH: QSVKESEGGLFKPTDTLTLTCTVSGFSLSSYAIGWVRQAPGNGLEWIGTIVTSGIPYYANWAKSRSTITRNTNLNTVTLKMTSLTAADTATYFCARNLDPAYSTTRLDLWGQGTLVTVSS
VL: AYDMTQTPASVSEPVRGTVTIKCQASQSISTALAWYQQKPGQPPKLLIYAASYLASGVPSRFSGSGSGTEFTLTISDLECADAATYYCHQGYSASNVDNTFGGGTEGGVKG
notes: Rabbit monoclonal antibody
With B3, the binding result in assay [1] is “no binding”.

B4: IM-C6 (antibody, V domains shown)
VH: QSVKESEGGLFKPTDALTLTCTVSGFSLSSYAISWVRQAPGSGLEWIGAINTYGGTYYASWAKSRSTITRNTNENTVTLKMTSLTAADTATYFCARDFDSDAYTSASGGMDPWGPGTLVTVSS
VL: AYDMTQTPASVEVAVGGTVTIKCQASQSINNYLSWYQQIPGQPPKLLIYRASTLASGVSSRFKGSGSGTQFTLTISGVQCADAATYYCQQGYTSNVDNVFGGGTEVVVKG
notes: Rabbit monoclonal antibody
With B4, the binding result in assay [1] is reported as “no binding”.

B5: IM-D5 (antibody, V domains shown)
VH: QSVKESEGGLFKPTDTLTLTCTVSGFSLSSYAISWVRQAPGNGLEWIGAIGKSGSAYYASWAKSRSTITRNTNLNTVSLKMTSLTAADTATYFCARWDSVGWTDARLDLWGQGTLVTVSS
VL: AYDMTQTPASVEVAVGGTVTIKCQASQSISTALAWYQQKPGQRPKLLIYGASKLASGVSSRFSGSGSGTEFTLTISGVECADAATYYCQQGYETSNVDNAFGGGTEVVVKG
notes: Rabbit monoclonal antibody
For the molecule B5, the binding result in assay [1] is “no binding”.

B6: IM-E2 (antibody, V domains shown)
VH: QSVKESEGGLFKPTDTLTLTCTVSGFSLSAYAISWVRQAPGNGLEWIGAINSGGSAYYANWAKSRSTITRNTNLNTVTLKMTSLTAADTATYFCAREDIYDYGGAFDPWGPGTLVTVST
VL: AYDMTQTPASVEVTVGGTVTIKCQASQGISSYLSWYQQKPGQPPKLLIYAATTLVSGVSSRFKGSGSGTQFTLTISGVECADAATYYCQQDYTTSNVDNTFGGGTEVVVKG
notes: Rabbit monoclonal antibody
Regarding B6, the OD in assay [2] came to 1.48 OD; in assay [3] it was 1.39 OD. The binding result in assay [1] was “no binding”.

B7: IM-G7 (antibody, V domains shown)
VH: QSVKESEGGLFKPTDTLTLTCTVSGFSLSSNVISWVRQAPGKGLEWIGDIYVSGNTDYASWAKSRSTITRNANLNTVTLKMTSLTAADTATYFCARYDMSSDAFDPWGPGTLVTVSS
VL: AYDMTQTPASVEVAVGGTVTIKCQASQNIGSYLSWYQHKPGQRPRLLMYRASTLASGVSSRFKGSGSGTEFTLTISGVQCDNAATYYCQQGYTNSGVDNTFGGGTEVVVKG
notes: Rabbit monoclonal antibody
As to B7, the binding result in assay [1] is “no binding”.

B8: IM-B10 (antibody, V domains shown)
VH: QSVKESEGGLFKPTDTLTLTCTVSGFSLSSYGVSWVRQAPGKGLEWIGSIWSGGTTDYASWAKSRSTITRNTNENTVTLKVTSLTAADTATYFCARGGYDYGYASNIWGPGTLVTVSS
VL: AYDMTQTPASVEVAVGGTVTIKCQASESISSYLSWYQQKPGQPPKLLIYRASTLASGVPSRFSGSGSGTEFTLTISDGQCDDAATYYCQQGYSVSNVDNIFGGGTEVVVKG
notes: Rabbit monoclonal antibody; also called IM4-B10
For the molecule B8, the binding result in assay [1] is recorded as “no binding”.

B9: IM-A6 (antibody, V domains shown)
VH: QSVKESEGGLFKPTDTLTLTCTVSGFSLSSYAISWVRQAPGNGLEWIGRINSGGATDYASWARSRSTITRDTNLNTVTLQMTSLTAADTATYFCAKEEYSYGGAYGMWGPGTLVTVSS
VL: AYDMTQTPASVSAAVGGTVTIKCQASESISTYLSWLQQKPGQPPKLLIYKASTLASGVPSRFKGSGSGTEFTLTISGVQCDDAATYYCQQDYTISNVGNVFGGGTEVVVKG
notes: Rabbit monoclonal antibody; also called I-A6
Turning to B9, the binding result in assay [1] is reported as “no binding”.

B10: IM-A1 (antibody, V domains shown)
VH: QSVKESEGGLFKPTDTLTLTCTVSGFSLSSNAISWVRQAPGNGLEWIGAIGSSGSTYYASWAKSRSTVTRNTNLNTVTLKMTSLTAADTATYFCARWENIGYTNVRLDLWGQGTLVTVSS
VL: AYDMTQTPASVEVAVGGTVTIKCQASQSISTALAWYQQKPGQPPKLLIYGASTLASGVSSRFKGSGSGTQFTLTISGVECADAATYYCQQGYSTSDVDNAFGGGTEG
notes: Rabbit monoclonal antibody; also called I-A1
As for B10, the binding result in assay [1] is “no binding”.
